What is called Kd is the free concentration of one partner at which half of the binding sites on the other are occupied at equilibrium, for simple one-to-one binding. A lower Kd goes with tighter binding.

Assay [1] deals with pro-cathepsin D (UniProt P07339).
The target is the same in assay [2]. As to the kind of experiment: MST.
Assay [3] shares this target. This is another data set of the same source.

pro-cathepsin D, sequence (P07339 21-412): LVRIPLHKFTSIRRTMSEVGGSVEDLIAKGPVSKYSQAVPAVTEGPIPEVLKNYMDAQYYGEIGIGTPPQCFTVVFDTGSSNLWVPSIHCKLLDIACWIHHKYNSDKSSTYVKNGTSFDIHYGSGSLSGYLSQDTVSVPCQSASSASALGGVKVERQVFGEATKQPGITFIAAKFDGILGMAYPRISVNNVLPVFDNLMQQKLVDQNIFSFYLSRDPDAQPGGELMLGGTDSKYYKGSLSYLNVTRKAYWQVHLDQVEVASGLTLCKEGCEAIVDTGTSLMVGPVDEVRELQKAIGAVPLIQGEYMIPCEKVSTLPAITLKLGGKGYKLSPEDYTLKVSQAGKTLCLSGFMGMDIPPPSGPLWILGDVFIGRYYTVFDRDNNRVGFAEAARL

On to “multi-granulin domain peptide CDE (domain or fragment)”, for which, in the assay with pro-cathepsin D [1], the DSF - ΔTm of proCTSD with peptide CDE, pH 7.4 is -2.78 °C and the Normalized Vmax of CTSD activity (20 nM proCTSD, 65 nM peptide CDE, pH 3.5) was determined as 1.84. The same substance yielded a Kd in the assay with pro-cathepsin D [2] of 130 nM. Moreover, the DSF - Tm reduction of proCTSD with CDE at a 1:1 molar ratio with pro-cathepsin D [3] was determined as 2.75 °C.

On to “multi-granulin domain peptide BAC (domain or fragment)”, for which, in the assay with pro-cathepsin D [1], the DSF - ΔTm of proCTSD (1 μM proCTSD with 2 μM peptide BAC, pH 7.4) was -3.38 °C and the Normalized Vmax of CTSD activity (20 nM proCTSD, 65 nM peptide BAC, pH 3.5) turned out to be 1.89. Further, in the assay with pro-cathepsin D [2], the Kd worked out at 2800 nM.
